Measured values published in patent US20240376151A1, “STAPLED PEPTIDES AND METHODS THEREOF” (FOG PHARMACEUTICALS, INC., priority 2022, published 2024).

Target: T1, beta-catenin (Homo sapiens, UniProt P35222)
T1 construct: made in house; host or cells: E. coli BL21 (DE3) pLysS
T1 sequence (P35222 134-665): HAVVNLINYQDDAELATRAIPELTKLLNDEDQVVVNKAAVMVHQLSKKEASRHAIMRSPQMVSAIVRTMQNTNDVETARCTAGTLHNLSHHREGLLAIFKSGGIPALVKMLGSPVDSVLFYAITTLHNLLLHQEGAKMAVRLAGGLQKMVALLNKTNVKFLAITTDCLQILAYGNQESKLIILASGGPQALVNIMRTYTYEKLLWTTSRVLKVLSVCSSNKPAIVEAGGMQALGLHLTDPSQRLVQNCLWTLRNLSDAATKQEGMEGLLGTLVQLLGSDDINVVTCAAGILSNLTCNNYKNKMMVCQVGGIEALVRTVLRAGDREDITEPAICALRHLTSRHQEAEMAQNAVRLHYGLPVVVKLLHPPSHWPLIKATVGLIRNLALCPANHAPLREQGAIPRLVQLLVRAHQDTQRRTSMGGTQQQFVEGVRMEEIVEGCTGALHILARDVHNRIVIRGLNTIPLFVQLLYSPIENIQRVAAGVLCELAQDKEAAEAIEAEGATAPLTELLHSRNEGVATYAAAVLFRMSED
Test: Phage Library Screening with NGS, beta-catenin
Assay type: binding
Details: for Target Concentration 10 (phage screen NGS readout): beta-catenin target concentration 10; for Target Concentration 10 (phage screen NGS readout) / Target Concentration 30 (phage screen NGS readout) / Target Concentration 100 (phage screen NGS readout) / Target Concentration 300 (phage screen NGS readout): no competitor; for Target Concentration 30 (phage screen NGS readout): beta-catenin target concentration 30; for Target Concentration 100 (phage screen NGS readout): beta-catenin target concentration 100; for Target Concentration 300 (phage screen NGS readout): beta-catenin target concentration 300; for Target Concentration 1000 (phage screen NGS readout): beta-catenin target concentration 1000

Sequence	Target Concentration BLANK (phage screen NGS readout) (first column)	Target Concentration BLANK (phage screen NGS readout) (fourth column)	Target Concentration BLANK (phage screen NGS readout) (second column)	Target Concentration BLANK (phage screen NGS readout) (third column)	Target Concentration 10 (phage screen NGS readout)	Target Concentration 30 (phage screen NGS readout)	Target Concentration 100 (phage screen NGS readout)	Target Concentration 300 (phage screen NGS readout)	Target Concentration 1000 (phage screen NGS readout) (first 1000 column)	Target Concentration 1000 (phage screen NGS readout) (second 1000 column)
DPAMSQCNWAAVHCQLL	0	0	0	0	6	6	6	13	15	23
DPAMVTCYEAAYVCQYF	0	0	0	0	0	0	0	0	7	0
DPAMWICEHAALNCEIR	0	0	0	0	2	6	46	158	145	152
DPANVECEWAAIHCSLV	0	0	0	0	13	2	19	158	164	187
DPAQFYCEHAALLCRWE	0	0	0	0	0	0	5	11	15	11
DPAQNICEWAALHCDLI	0	0	1	0	0	13	37	109	177	82
DPAQQDCTLAAHVCRVF	0	0	0	0	0	0	19	21	70	11
DPAQSDCDWAAEHCNLI	0	0	0	0	0	1	0	23	9	57
